Experimental data published in paper PMC2705800, “Nucleocytoplasmic Shuttling of the TACC Protein Mia1p/Alp7p Is Required for Remodeling of Microtubule Arrays during the Cell Cycle” (PLoS ONE, 2009).

Target: T1, MBP-Mia1p-MutNES4 (S. pombe, UniProt Q9URY2 1-474, L461A (AVAAMDQANA; Leu/Ile residues 461, 463, 468 and 470) | I463A (AVAAMDQANA; …)
T1 construct: Cloned into the pAD2a vector (MBP upstream of the multiple cloning site), as m1; also called Mia1-MutNES4; NES mutant version of Mia1p; source: E. coli BL21 (DE3) carrying the pG-KJE8 chaperone plasmid; not shown: MBP, N-terminal, kept
T1 sequence (looked up): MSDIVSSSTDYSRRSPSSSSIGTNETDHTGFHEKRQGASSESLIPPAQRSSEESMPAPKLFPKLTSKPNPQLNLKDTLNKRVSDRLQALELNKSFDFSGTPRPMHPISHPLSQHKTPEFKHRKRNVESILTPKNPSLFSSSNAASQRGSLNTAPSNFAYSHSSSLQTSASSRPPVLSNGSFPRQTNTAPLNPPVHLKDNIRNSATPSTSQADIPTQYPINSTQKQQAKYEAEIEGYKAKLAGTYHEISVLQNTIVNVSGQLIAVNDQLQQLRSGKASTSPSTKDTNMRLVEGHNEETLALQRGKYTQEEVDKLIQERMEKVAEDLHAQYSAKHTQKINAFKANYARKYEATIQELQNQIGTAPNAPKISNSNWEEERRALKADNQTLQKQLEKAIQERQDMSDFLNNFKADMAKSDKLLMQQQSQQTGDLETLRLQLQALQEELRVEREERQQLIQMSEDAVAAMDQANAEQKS
Assay: pull-down; MBP fusion held on amylose resin, incubated 1 hour at 4°C with soluble total lysate of Alp14p-13myc expressing mia1Δ S. pombe cells; Buffer A (20 mM Tris-HCl pH 7.4, 400 mM NaCl, 1 mM EDTA, 10 mM β-mercaptoethanol); washed 3 times; Alp14p-myc detected with anti-myc antibody, MBP proteins by Coomassie
Details: one partner purified

B1: Alp14p-13myc (natural protein, S. pombe, UniProt O94534 1-809, looked up)
chain: MSQDQEEDYSKLPLESRIVHKVWKVRLSAYEECSKSFSLSADGSDNCFELWNNQSELWKSVLTDSNVAAQEAGTAAFVAYCRFSDPSHLLKAREISVLSISEKCLTSPRAGTRENALEALMLLVEADSAAPVIESIIPSLSARSPKVIASNVAAIASLVEQFGAKVIPSKMIIPHISNLFGHADKNVRKEASRLTVNIYRWTGDPLKDLLFKDLRPVQTKELESLFAELPTEPPKQTRFLKSQQPTSEPNVETQVEEQPALENEESEPEPSDDQFDLVEEVDVLPNVDPNLETLMASSKWKDRKEALDKLLPVLSQPKIKDNDFFNLVAILTKSVSKDANIMVVINAAHCIQAMAKGLRSNFSKYASTSINALLERSKEKKANVIESLSSAMDAVLATSSLDDLAELIASFAGNKNPQIKSSCFSLFSRSFSNMTSLPSKFTVDTCAKACVPGVSDTFEPVRSAAAEALGVLMKLVGERAINQYLSPLDDIRKSKIRSFYETATVKAKAPTKKSKVKPSKQEESKVVVPSNAKAVKKSVVPSSPVVPSPRKATNKSLSMDVSKGNAFENGPLLPRPTTRPVSRGLSRGTSSSLQQKVKASTPLNSGALNETVQNLKNMELDDPAPQPAKHSRVDRYEHPKVLEDNDSTISSLESLKRENEELREQLKVEHEENISMQKQLSELKGELNTLRSARKASPIGDRKPAFMRRANTDFLELSTSPSFQRSVREFEPTRPKLYSSIDVNQRSPLASAKTNGNFTFHAELPRSPFSSRANNINPDWTKAIDLAAKLKQKITEMKQTDQRHQGLIH
notes: Alp14p, TOG protein of Schizosaccharomyces pombe, partner of Mia1p/Alp7p; also called Alp14p-myc; Alp14p/TOG; source: S. pombe mia1Δ cells expressing Alp14p-13myc, total cell lysate
ratio of Alp14p-myc pulled down, against MBP-Mia1p: 0.26 ratio to MBP-Mia1p
